Assay results reported in the nanobody polyreactivity screen of Harvey et al. (2022).

test: yeast display, Sf9 membrane polyspecificity reagent, FACS + sequencing; frameworks hold sequencing errors
Summary of the method: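 Polyreactivity labels are assigned by the sorting gate from which each nanobody was recovered. The gates were low and high (top ~1%), set on anti-HA fluorescence for expression and streptavidin fluorescence for reagent binding. Before sorting, galactose-induced (36–48 hours) yeast display cells were stained for 1 hour at 4 °C with 10% biotinylated, detergent-solubilized Sf9 membrane reagent.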

Row | Sequence | polyreactivity (PSR sort gate)
1 | QVQLVESGGGLVQAGGSLRLSCAASGITFEYNAMGWYRQAPGKERELVATISGGARTYYADSVKGRFTISRDNAKNTVYLQMNSLKPEETAVYYCAAKYPWYGWFDHWGQGTQVTVSS | low polyreactivity
2 | QVQLVESGGGLVQAGGSLRLSCAASGITFEYYAMGWYRQAPGKERELVAAIDTGGSTNYADSVKGRFTISRDNAKNTVYLQMNSLKPEDTAVYYCAADWSWWDGEDYHFEYDYWGQGTQVTVSS | low polyreactivity
3 | QVQLVESGGGLVQAGGSLRLSCAASGITFEYYAMGWYRQAPGKERELVAAIDTVGSTNYADSVKGRFTISRDNAKNTVYLQMNSLKPEDTAVYYCAADWSWWDGEDYHFEYDYWGQGTQVTVSS | low polyreactivity
4 | QVQLVESGGGLVQAGGSLRLSCAASGITFEYYDMGWYRQAPGKERELVAAISWSTDITYADSVKGRFTISRDNAKNTVYLQLNSLKPEDTAVYYCAALGGLSDFWHLYDYWGQGTQVTVSS | low polyreactivity
5 | QVQLVESGGGLVQAGGSLRLSCAASGITFFGYAMGWYRQAPGKERELVAGISRSTGRTYYADSVKGRFTISRDNAKNTVYLHMNSLKPEDTAVYYCNAELYPWPGVVRYNYWGQGTQVTVSS | high polyreactivity
6 | QVQLVESGGGLVQAGGSLRLSCAASGITFFNYAMGWYRQAPGKERELVAAISGGSTYYADSVKGRFTISRDNAKNTVYLQMNSLKPEDTAVYYCAARVASKYLVYRKRPSRFDYWGQGTQVTVSS | low polyreactivity
7 | QVQLVESGGGLVQAGGSLRLSCAASGITFFRNAMGWYRQAPGKERELVAGISTTGGRTYYADSVKGRFTISRDKAKNTVYLQMNSLKPEDTAVYYCNTLVPRAGREYDYWGQGTQVTVSS | high polyreactivity
8 | QVQLVESGGGLVQAGGSLRLSCAASGITFFRNAMGWYRQAPGKERELVAVITYSGGRTSYADSVKGRFTISRDNAKNTVYLQMNSLKPEDTAVYYCATEKWQSSPGYTYYFVEYDYWGQGTQVTVSS | low polyreactivity
9 | QVQLVESGGGLVQAGGSLRLSCAASGITFFSYAMGWYREAPGKERELVAAISRRTGSTYYADSVKGRFTISRDNGMNTVFLQMMSLKPEDTAVYYCAARLPGTRYPYDYWGQGTQVTVSS | high polyreactivity
10 | QVQLVESGGGLVQAGGSLRLSCAASGITFFTNVMGWYRPAPGKERELVAAISRSGTSTYYADSVKGRFTISRDNAKNTVYLQMNSLKPEDTAVYYCNADQIRGDGDYWGQGTQVTVSS | high polyreactivity
11 | QVQLVESGGGLVQAGGSLRLSCAASGITFFWNAMGWYRTAPGKERELVAAISSGAGTTYADSVKGRFTISRDNAKNTVYLQMNSLKPEDTAVYYCAARRYRYAYGPYNYWGQGTQVTVSS | low polyreactivity
12 | QVQLVESGGGLVQAGGSLRLSCAASGITFFYNAMGWYRQAPGKERELVADITNSGSTYYADSVKGRFTISRDNAKNTVYLQMNSLKPEDTAVYYCAAGQAYDYFVYYPDDYWGQGTQVTVSS | low polyreactivity
13 | QVQLVESGGGLVQAGGSLRLSCAASGITFFYYAMGWYRQAPGKEMELVAAIRYYGTSTYADSVKGRFTISRDNAKNTVYLQMNSLKPEDTAVYYCAAVFWFVGSLYDYWGQGTQVTVSS | low polyreactivity
14 | QVQLVESGGGLVQAGGSLRLSCAASGITFGANTMGWYRQAPGKERELVADITVTGDGTYYADSVKGRFTISRDNAKNTVYLQMNSLKPEDTAVYYCAADFWLVSFQWDFEYDYWGQGTQVTVSS | low polyreactivity
15 | QVQLVESGGGLVQAGGSLRLSCAASGITFGAYAMGWYRQAPGKERELVAVITRGADTYYADSVKGRFTISRDNAKNTVYLQMNSLKPEDTAVYYCAAEIDLPYYYGSDDDDYWGQGTQVTVSS | high polyreactivity
16 | QVQLVESGGGLVQAGGSLRLSCAASGITFGDNVKGWYRQAPGKERELVAAISRIGDDTYYADSVKGRFTISRDNAKNTVYLQMNSLKPEDTAVYYCAAEYIYYIWSSYIDWDYYWVQGTQVTVSS | low polyreactivity
17 | QVQLVESGGGLVQAGGSLRLSCAASGITFGDYAMGWDRQAPGKERELVAGINWSGDGTYYSDSVKGRFTISRDNAKNTFYLQMNSLKPEDTAVYYCAAETFYDYGGYDYWGQGTQVTVSS | low polyreactivity
18 | QVQLVESGGGLVQAGGSLRLSCAASGITFGFNAMVWYRQAPGKETELVAAITYRGGSTYYADSVKGRFTISRDNAKNTVYLQMNSLKPEDTAVYYCAADIGRHTDNYDPRYDYWGQGTHVTVSS | low polyreactivity
19 | QVQLVESGGGLVQAGGSLRLSCAASGITFGPYAIGWYRQAPGKERELVAAISAGGGSTYYADSVKGRFTISRDNAKNSVYLQMNSLKPEDTAVYYCAAYLLHHYGGPEYYYWGQGTQVTVSS | high polyreactivity
20 | QVQLVESGGGLVQAGGSLRLSCAASGITFGPYAMGWYRQAPGKERELVATISSSGGSTYYADSVKGRFTISRDNAKNTVYLQMNSLKPEDTAVYYCNAGYAPYLGAYDYWGQGTQVTVSS | low polyreactivity
21 | QVQLVESGGGLVQAGGSLRLSCAASGITFGRNTLGRYRQAPGKVRELVAAIDSGGNTYADSVKGRFTISRDNAKNTVYLQMNSLKPEDTAVYYCAVDGCEFSSYGYWGQGTQGTVSS | low polyreactivity
22 | QVQLVESGGGLVQAGGSLRLSCAASGITFGRNTMGWYRQAPGKERELVAAIDSGGNTYADSVKGRFTISRDNAKNTVYLQMNSLKPEDTAVYYCAKDVYSYYYPYRYESWGQGTQVTVSS | low polyreactivity

Row | Sequence | polyreactivity (PSR sort gate)
23 | QVQLVESGGGLVQAGGSLRLSCAASGITFGRNTMGWYRQAPGKERELVAAIDSGGNTYADSVKWRFTISRDNAKNTVYLQMNSLKPEDTAVYYCAADIGSWYDYWGQGTQVTVSS | low polyreactivity
24 | QVQLVESGGGLVQAGGSLRLSCAASGITFGRNTMGWYRQAPGNERELVAAIDSGGNTYADSVKGRFTISRDNAKNTFYLQMNSLKPEDTAVYYCCVDGGEFSSYGYWGQGTQVTVSS | low polyreactivity
25 | QVQLVESGGGLVQAGGSLRLSCAASGITFGRNTMGWYRQAPRKERELVAAIDSGGNTYADSVKGRFTISRDNAKNTVYLQMNSLKPEDTAVYYCAVDGGEFSSYGYWGQGTQVTVSS | low polyreactivity
26 | QVQLVESGGGLVQAGGSLRLSCAASGITFGSNAMGWYRQAPGKERELVAAIRYSTGSTYYADSVKGRFTISRDNAKNTVYLQMNRLKPEDTAVYYCAKGKNRYTWYGMGYWGQGTQVTVSS | high polyreactivity
27 | QVQLVESGGGLVQAGGSLRLSCAASGITFGSYAMGWYRQAPGKEREFVAAISLSGGNTYYADSVKGRFTISRDNAKNTVYLQMNSLKPEDTAVYYCAADYEYSGYGYWGQGTQVTGSS | high polyreactivity
28 | QVQLVESGGGLVQAGGSLRLSCAASGITFGVYGMGWYRQAPGKERELVAAIDQSGDSTYYADSVKGRFTISRDNAKNTVYLQMNSLKPEDTAVYYCAAQSYDYWYDYDYWGQGTQVTVSS | high polyreactivity
29 | QVQLVESGGGLVQAGGSLRLSCAASGITFGWNVAMGWYRQAPGKERELVATITNGGSTKYADSVKGRFTISRDNAKNTVYLQMNSLKPEDTAVYYCAARVYHRFEWFHQYDYWGQGTQVTVSS | high polyreactivity
30 | QVQLVESGGGLVQAGGSLRLSCAASGITFGWYAMGWYRQAPGKERELVASISSSGSTNYADSVKGRFTISRDNAKNTVYLQMNSLKPEDTAVYYCNKDYLLRHYYIYVIEGDYWGQGTQVTVSS | low polyreactivity
31 | QVQLVESGGGLVQAGGSLRLSCAASGITFGYYAMGWYRPAPGKERELVAAITYSGGSTYYADSVKGRFTISRDNAKNTVYLQMNCLKPEDTAVYDCAAERYVRVWVAGILHYDYWGQGTQVTVSS | low polyreactivity
32 | QVQLVESGGGLVQAGGSLRLSCAASGITFGYYAMGWYRQAPGKERELVAAINWSGGSTYYADSVKGRFTISRDNAKNTVYLQMNSLKPEDTAVYYCNARPFNRYYREYDYWGQGTQVTVSS | high polyreactivity
33 | QVQLVESGGGLVQAGGSLRLSCAASGITFGYYAMGWYRQAPGKERELVAAIRSSGGSTYYADSVKGRFTISRDNAKNTVYLQMNSLKPEDTAVYYCNARYRKSSRPGYEPYERYYWGQGTQVTVSS | high polyreactivity
34 | QVQLVESGGGLVQAGGSLRLSCAASGITFGYYAMGWYRQAPGKERELVAAISSSGGSTYYADSVKGRFTISRDNAKNTVYLQMNSLKPEDTAVYFCAARYRKYSWYDYWGQGTQVTVSS | high polyreactivity
35 | QVQLVESGGGLVQAGGSLRLSCAASGITFGYYAMGWYRQAPGKERELVAAITWSGGSTYYADSVKGRFTISRDNAKNTVYLQMNSLKPEDTAVYYCNADRFGRAHVYPEFDYWGQGTQVTVSS | low polyreactivity
36 | QVQLVESGGGLVQAGGSLRLSCAASGITFHEYAMVWYRQAPGKERELVAAISASGGTTYYADSVKGRFTISRDNAKNTVYLQMNSLKPEDTAVYYCAALPLYITEYGYWGQGTQVTVSS | high polyreactivity
37 | QVQLVESGGGLVQAGGSLRLSCAASGITFHGNTMGWYRQAPGKERELVAGISTSGSITYYADSVKGRFTISRDNAKKTVYLQMNSLKPEDTAVYYCAAVSHATQIAERGYWGQGTQVTVSS | low polyreactivity
38 | QVQLVESGGGLVQAGGSLRLSCAASGITFHGYAMGWYRQAPGTERELVAAISDSGSSTYYADSVKGRFTISRDNAKNTVYLQMNSLKPEDTAVYYCAAVSGFYDQYDYWGQGTQVTVSS | low polyreactivity
39 | QVQLVESGGGLVQAGGSLRLSCAASGITFHVYAMGWYRQAPGKEREFVASISWSGGSTYYADSVKGRFTISRDNAKNTVYLQMNSLKPEDTAVYYALLTVLSAVPYSVRYDYWGQGTQVTVSS | high polyreactivity
40 | QVQLVESGGGLVQAGGSLRLSCAASGITFIPNAMGWYRQAPGKERELVAAISISGGRTYYADSVKGRFTISRDNAKNPVYLQMNSLKPEDTAVYYCAADRADFFVIRTIDPYDYWGQGTQVTVSS | low polyreactivity
41 | QVQLVESGGGLVQAGGSLRLSCAASGITFIYYAMGWYRQAPGKEREFVAAISSRDDSTYYADSVKGRFTISRDNAKNTVYLQMNSLKPEDTAVYYCAAASSRRSAIKYGYWGQGTQVTVSS | high polyreactivity
42 | QVQLVESGGGLVQAGGSLRLSCAASGITFIYYAMGWYRQAPGKEREFVAAITFRDGDTYYADSVKGRFTISRDNAKNTVYLQMNSLKPEDTAVYYCADTYWVYYYYPGYDYWGQGTQVTVSS | low polyreactivity
43 | QVQLVESGGGLVQAGGSLRLSCAASGITFIYYAMGWYRQAPGKERELVAAISKSGGRTYYADSVKGRFTISRDNAKNTVYLQMNSLKPEDTAVYYCNKLVGDDTALYDYWGQGTQVTVSS | high polyreactivity
